Experimental data reported in paper PMC8458794 (Protein & Cell, 2021).

B1: XG014 monoclonal antibody (IgG) (antibody, V domains shown)
VH: EVQLVQSGAEVKKPGESLKISCKGSGYSFSNYWIGWVRHMPGKGLEWMGIIYPGDSDTRYSPSFQGQVTISVDTSISTAYLQWSSLKASDTAMYYCTRHQYGYNYGYFYYYIDVWGKGTTVTVSS
VL: QSVLTQPPSVSAAPGQKVTISCSGSSSNIGNNPVSWYRQVPGTAPKLLIYDNNKRPSGIPDRFSGSKSGASATLGITGLQTGDEADYYCGTWHTSLSSGVFGGGTKLTVL
B2: XG005 monoclonal antibody (IgG) (antibody, V domains shown)
VH: QVTLRESGPTLVKPKQTLTLTCTFSGFSLSTPGGGVGWIRQPPGKALEWLALIYWDDDKRYSPSLKSSLTITKDTSKNQVVLTMTNMDPVDTATYYCARLTAADTIFDCWGQGTLVTVSS
VL: QSALTQPASVSGSPGLSITISCTATSSDVGAYNYVSWYQQHPGQAPKLMIYDVSKRPSGVSNRFSGSKSANTASLTISGLQAEDEADYYCSSYTTTSVVFGGGTKLTVL

Columns and labels:
[1] = target: T1, Avi-tagged SARS-CoV-2 RBD, biotinylated (Severe acute respiratory syndrome …, UniProt P0DTC2, biotin (BirA biotinylation of the Avi tag)); test: BLI; settings: both partners purified
T1 construct: also called biotinylated RBD protein of SARS-CoV-2

[2] = target: recombinant S-ECD of SARS-CoV (Severe acute respiratory syndrome …, UniProt P59594); test: cell-based or functional assay
[3] = target: recombinant SARS-CoV-2 RBD protein (wild type) (SARS-CoV-2, UniProt P0DTC2); test: ELISA; settings: both partners purified

Binder | Kd [1] | IC50 of neutralisation of SARS-CoV pseudovirus in Huh-7 cells [2] | binding result [3]
B1 | < 1 pM | 0.016 mg/L | 
B2 |  |  | binds
